± gives the uncertainty stated by the source.

A short description of this data set: amyloid nucleation score (Sup35N fusion, yeast selection) (log enrichment); library NNK1; higher = more nucleation; inactive = no reads after selection. The method in brief:
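Sup35N was fused to peptides of 20 random codons and expressed in psi-negative yeast, which were induced with 100 μM copper sulfate for 24 hours and then grown on medium lacking adenine and uracil for 7 days at 30°C. Plasmid inserts from input and output were sequenced on Illumina. The nucleation score is the DiMSum log enrichment of output over input reads, centred on the mode score of non-aggregating sequences. Sequences with under 100 input reads were left out, and random libraries had three technical output replicates.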
In turn, TFGINRYNFRISARIGQVCI had an amyloid nucleation score of -0.284 ± 0.22.

Turning to YLQLSRAVQRVLTRRWSSI, the amyloid nucleation score stood at 0.31 ± 0.52.

VMYEVVHVNDDRCEAWLLSR returned an amyloid nucleation score of -0.018 ± 1.5.

Substance MSAGIVFIKQFVCS returned an amyloid nucleation score of 3.25 ± 0.12.

Consider DFVMLEV, for which the amyloid nucleation score is -0.594 ± 0.68.

DPGVNALVLLILKTWDRDYE: the amyloid nucleation score was -0.638 ± 0.69.

The substance ERVLYIGFYTYVDNCFRLLK had an amyloid nucleation score of -0.12 ± 0.34.

As to GLSGTSALPPGIS, the amyloid nucleation score worked out at 0.318 ± 0.79.

Turning to HHKPRPNIQFFRYSCKERAS, the amyloid nucleation score was found to be 0.035 ± 1.

Turning to YRRVKM, the amyloid nucleation score was -0.089 ± 0.53.

SYVVETQFSSHFSVLWDLMF returned an amyloid nucleation score of -1.49 ± 1.2.

FIIWHELWKVMWSSTALSLD: the amyloid nucleation score turned out to be 0.769 ± 0.69.

VRTSYFVAGSGSNAWGGENE displayed an amyloid nucleation score of -0.956 ± 0.99.

As to CYKPPLWMMYLLLRRDVYRD, the amyloid nucleation score entry was “inactive”.

YSQCSRVNFWISAYCVNYIN gave an amyloid nucleation score of 7.03 ± 0.071.

In turn, QYFSWGRVATCSACG gave an amyloid nucleation score of 0.309 ± 0.62.

In the case of NFFCDSISY, the amyloid nucleation score was -0.908 ± 1.1.

Regarding WESSGFQMICRSFSFNMFSS, the amyloid nucleation score was -0.458 ± 0.52.

With FDRFCFIIIVQYSFHG, the amyloid nucleation score turned out to be 1.35 ± 0.76.

In the case of QCYIGVKYHSALVWDHTPEA, the amyloid nucleation score was 2.29 ± 0.61.

For LLDLDVTLIRNHWWFKSLLA, the amyloid nucleation score is -0.047 ± 0.41.

YVYGYLNHRTSSGRMFFLFY came in with an amyloid nucleation score of 0.077 ± 0.38.

Substance YVTIIDKIYIWLDVVNRDLP came in with an amyloid nucleation score of 2.55 ± 0.29.

As for LIVMVKV, the amyloid nucleation score was determined as 0.111 ± 0.33.

The substance VFKSVFY registered an amyloid nucleation score of 1.99 ± 0.32.

GKIYWLLLQTDKDRRFLTMR displayed an amyloid nucleation score of -0.744 ± 0.46.

On to FLFFRS, for which the amyloid nucleation score is 4.62 ± 0.086.

In turn, HMVFQVKFWTNHRQVFSLPY displayed an amyloid nucleation score of 2.91 ± 0.14.

The substance TCNNRSSSCR had an amyloid nucleation score of 1.1 ± 0.61.

Take FSGCGWYRTVDYGGP: the amyloid nucleation score entry was “inactive”.

Substance NIILSYLYFRTARVISEDRR displayed an amyloid nucleation score of 4.7 ± 0.081.

Regarding WVTHRL, the amyloid nucleation score is -0.715 ± 1.2.

In turn, GYNMTKAYQCVCFIGDLPGT displayed an amyloid nucleation score of 4.61 ± 0.13.

Regarding ISLWLFVFCCHIISISKWLL, the amyloid nucleation score entry is “inactive”.

On to DYFWSSSEGWPEFQNIKSIG, for which the amyloid nucleation score was -0.07 ± 1.4.

NFPVVW came in with an amyloid nucleation score of 0.286 ± 0.28.

Turning to MLNAIRSVGMSTHRSSEGG, the amyloid nucleation score was -0.475 ± 0.77.

For GFWDFWVGRCLSSYVQFANL, the amyloid nucleation score was found to be 0.28 ± 0.48.

As to LVHSFMW, the amyloid nucleation score was found to be 0.876 ± 0.51.

The substance LCRVVGYRSPHWQVRGLSVV gave an amyloid nucleation score of -0.215 ± 1.7.

Substance SKVVGGESKVQ registered an amyloid nucleation score of 1.05 ± 0.6.

As to PCSVISGHLTSMSSLSLFGG, the amyloid nucleation score was -0.299 ± 0.32.

LCGTSGCSIRNLV: the amyloid nucleation score was determined as 0.026 ± 0.46.

In turn, AWSRLSVNPVVEENVMAIAL returned an amyloid nucleation score of 0.909 ± 0.69.

Regarding AHYRRVSVAQTHWMADPFGR, the amyloid nucleation score is 0.976 ± 0.36.

Regarding RWRKVGIKEGLIMLESGVSR, the amyloid nucleation score was -0.921 ± 2.4.

LRGEDNLLWCVISMTL: the amyloid nucleation score entry was “inactive”.

For the substance SRYYNILWNKVCRVRDNH, the amyloid nucleation score entry was “inactive”.

In turn, RAHVLLLFMNCRRCKQTMIR registered an amyloid nucleation score of -0.88 ± 1.1.

For SRVRVLASVSFMTVRMVFEV, the amyloid nucleation score turned out to be 0.436 ± 0.25.

FRNGDGVQPWLTWHAV showed an amyloid nucleation score of 1.28 ± 0.33.

Substance CSFFTKDSDTP returned an amyloid nucleation score of 0.327 ± 0.3.

The substance RCVIDDKLWGISLRGPMMGV came in with an amyloid nucleation score of -1.48 ± 1.9.

On to HAFFHYWPVCQWV, for which the amyloid nucleation score was 4.57 ± 0.1.

In the case of HVCSFLQAGAHWRRVAVCAG, the amyloid nucleation score stood at 0.124 ± 0.73.

In turn, RSVSLNRSTRRRR returned an amyloid nucleation score of 1.1 ± 0.41.

HRLRLSVVRAIYDTQIHQRA showed an amyloid nucleation score of -0.043 ± 0.34.

Take SQEHCMVNTK: the amyloid nucleation score was determined as 0.112 ± 0.59.

CLFKGLCSGWLREYALPYFC registered an amyloid nucleation score of -1.05 ± 0.97.

NILPSREYHVAKVAGCATGW yielded an amyloid nucleation score of -0.618 ± 1.4.

With TTGSLVCKAAPIWFVPTPAF, the amyloid nucleation score is -1.09 ± 0.84.

With FDFYSLRRGGVNYRSLLQVI, the amyloid nucleation score is 0.25 ± 0.84.

As to GNTSMILSPA, the amyloid nucleation score is -0.511 ± 1.1.

Regarding YSYSEGSLYQCSVSVV, the amyloid nucleation score was found to be 0.601 ± 0.7.

In turn, DKLKLNRVRSSISSYNKQNK yielded an amyloid nucleation score of 1.06 ± 0.28.

The substance YVTFGWIYTSLVPYRLEVIL came in with an amyloid nucleation score of 0.243 ± 0.42.

Regarding FLPRSYCVFSWFHLSVSTAR, the amyloid nucleation score result is “inactive”.

As for DSTDSVESEWNTVRSYVSLW, the amyloid nucleation score entry was “inactive”.

In turn, SNRCSPDMESDVHSVKELYR had an amyloid nucleation score of 0.762 ± 0.41.

In turn, NNKQYLI yielded an amyloid nucleation score of 1.59 ± 0.38.

LKRVQCNSDRAMWCVALVLT displayed an amyloid nucleation score of 0.314 ± 0.59.

As for LKSSSCHQTSISHRALFCNL, the amyloid nucleation score is -0.373 ± 1.2.

Consider VLFKGHLIEV, for which the amyloid nucleation score turned out to be 0.138 ± 0.3.

In turn, CPLSNGSVRVNDGATTLAWL displayed an amyloid nucleation score of -0.956 ± 2.1.

TSTPNVWRKR: the amyloid nucleation score entry was “inactive”.

As to FVGSSFGDDFISVSIHSWRP, the amyloid nucleation score entry was “inactive”.

In turn, STDSCVALSMATWF returned an amyloid nucleation score of 0.188 ± 0.46.

With VSMHWSISRCIC, the amyloid nucleation score was 0.772 ± 0.43.

As to SLSRCMIYDYR, the amyloid nucleation score result is “inactive”.

PHIIFNVVTITYMISALRHV showed an amyloid nucleation score of 3.49 ± 0.09.

As for SLVYQYIVLCTV, the amyloid nucleation score is -1.47 ± 1.2.

For the substance VSRMGVGTIRTQVHGIRGGT, the amyloid nucleation score was -0.522 ± 1.6.

With LCLDKQSSCGSMMSGIYDLM, the amyloid nucleation score was -0.064 ± 0.28.

GHSRSSGLLKKFCVKSRQDA yielded an amyloid nucleation score of 0.234 ± 0.66.

For MIQVPFKCPCKLTADLGGNW, the amyloid nucleation score result was “inactive”.

In turn, SHLGVMLNIRYNKSPQTTAP displayed an amyloid nucleation score of 2.1 ± 0.41.

The substance CFQLRVGMTDDALWRLMC had an amyloid nucleation score of -0.452 ± 1.9.

The substance NGCTIVGVTKGSLNH gave an amyloid nucleation score of 1.04 ± 0.24.

QRCYCGSCDWLRAMFVCWGL: the amyloid nucleation score result was “inactive”.

ALPCYCPPVQSPCASFGWME had an amyloid nucleation score of -0.569 ± 0.29.

MLGYIHAEVHVIVSWNLCLK gave an amyloid nucleation score of -0.378 ± 0.53.

With CHIGSRPLASMKAFPHCDVA, the amyloid nucleation score was 1 ± 0.57.

WLLVQLYYVCYFGLRLEFSM returned an amyloid nucleation score of -0.237 ± 0.18.

On to CWIMYDYSSPGLFL, for which the amyloid nucleation score is -1.1 ± 1.6.

Turning to EALLWTEGMWHSSGGLYSNV, the amyloid nucleation score was 0.261 ± 0.27.

CDSKLHISSSC: the amyloid nucleation score worked out at 0.313 ± 0.84.

For SCSELGMLERLDMGLTLEVL, the amyloid nucleation score is -0.105 ± 0.36.

SSYVNRDCAFLWDD displayed an amyloid nucleation score of 2.75 ± 0.19.

As for VVHHEDYMRLGC, the amyloid nucleation score was -0.948 ± 1.4.

Turning to STDMYVPVPDTDWIICLRQL, the amyloid nucleation score is -0.23 ± 0.56.

Substance SYKGFRSGKVWCFNEASYTS yielded an amyloid nucleation score of 1.18 ± 0.45.

The substance LFNMFDQITCIVDSDNYRHA came in with an amyloid nucleation score of 0.116 ± 0.25.

On to CFEYFY, for which the amyloid nucleation score was -0.664 ± 0.32.

The substance VCELHLILM returned an amyloid nucleation score of 0.425 ± 0.3.

TASFY came in with an amyloid nucleation score of -0.41 ± 1.6.

For the substance SWCLKDMSNMLLASIRRFVL, the amyloid nucleation score entry was “inactive”.

The substance FVSVCD had an amyloid nucleation score of -0.049 ± 1.

Consider YKGWYFFYVCFSKLSIGS, for which the amyloid nucleation score is -0.305 ± 0.72.

In the case of CVGDFVME, the amyloid nucleation score was -0.318 ± 0.98.

Regarding LYMVWCACSFWDYITVFIFM, the amyloid nucleation score was 0.041 ± 0.65.

Consider WLWPPLACDHMPIAVSETDA, for which the amyloid nucleation score is -0.775 ± 0.99.

In turn, LGDTVCVRYCR yielded an amyloid nucleation score of 0.223 ± 0.37.

IWTNTLNFTARFANVLAGTG showed an amyloid nucleation score of -0.705 ± 1.2.

In turn, CVKLGYYWSF displayed an amyloid nucleation score of 0.598 ± 0.16.

VLYLMAAPIVMVYV came in with an amyloid nucleation score of 4.31 ± 0.061.

CLMGTHILGSRVVGTPSMVR yielded an amyloid nucleation score of 0.47 ± 1.2.

As for FCSSSLFHKVTLG, the amyloid nucleation score was -0.043 ± 0.77.

ANMCISGAYNCVSVLCLRNR: the amyloid nucleation score turned out to be 6.59 ± 0.047.

Consider ASAFVRVMNV, for which the amyloid nucleation score amounted to 0.527 ± 0.5.

FCRKSQEKYWVPFK registered an amyloid nucleation score of -0.667 ± 1.

In the case of LILLLFEGFLLP, the amyloid nucleation score was found to be 0.246 ± 0.63.

In turn, FYLGPCYAVIWVNFQLPLGV registered an amyloid nucleation score of 0.596 ± 0.33.

Take WEKFIVAQIMVGHFGWVFQT: the amyloid nucleation score turned out to be 5.36 ± 0.078.

In the case of VYMRNKEQVNIGHDTVNLSL, the amyloid nucleation score was found to be 0.58 ± 0.43.

The substance YNAASKGEINPNAGNVILFV came in with an amyloid nucleation score of 3.13 ± 0.1.

In turn, LYLYNYRFAGLFFIDLETIW yielded an amyloid nucleation score of -0.415 ± 0.57.

For the substance SSEVRMTVVSLGPLMDRPNV, the amyloid nucleation score was -0.243 ± 0.68.

As for FTISSKLRYIGTGVINGPVD, the amyloid nucleation score is -0.397 ± 0.56.

With ILDMMAKV, the amyloid nucleation score is 1.56 ± 0.76.

KYDRNFNTRWGTKDVWTLAD had an amyloid nucleation score of -0.065 ± 0.57.

SNIQDCYRFEGLHKKTNENL had an amyloid nucleation score of -0.684 ± 0.91.

For ISRGDVGVKESSGCNCVLPH, the amyloid nucleation score is -0.587 ± 1.3.

In the case of CVLRMNVFDSKGFWVGYRRD, the amyloid nucleation score amounted to 0.602 ± 0.41.

In the case of CLRPLEPDVYVTRILRFCDS, the amyloid nucleation score is -0.304 ± 0.39.

Regarding CTPFMRTSLSFICSDSSVML, the amyloid nucleation score worked out at 0.771 ± 0.82.

The substance NGANMLVCKRFVLVNLYGPA gave an amyloid nucleation score of 6.02 ± 0.063.

With YILVNMMGVWVVKVTHKVN, the amyloid nucleation score result is “inactive”.

For the substance NRFYL, the amyloid nucleation score amounted to 0.597 ± 0.4.

As to RKDVLEGADSMTMVRRSSLF, the amyloid nucleation score was -0.286 ± 0.35.

Values taken from the supplement of paper PMC12042874.
